Reference: the DeepSol protein solubility set

Assay: soluble on expression in E. coli; label from the status in PepcDB or PDB records

Sequence	soluble on expression in E. coli
MSVKQEQCLIKVVSYDSNWPVQFEQEAERIKKALGSNCIEIHHIGSTSVPDLVAKPVIDMIPVVLDISKVDGANAAIRALGYEAKGEYGIPFRRYFQKGDNRLTHHAHVFELGNPEIERHLKFRDWMRMHPKDREAYARLKQELARRYSDDITAYCLGKEDFIATIDKKAGFNGLRMVKALTTREWDKVRHFRQFYFFDKAGLSDPYTWTFEHNAHVHFVLFQGSEITGYAHLQLWSHNRAALRIIVIDELKRNHQYGTRFLALCEKWLKSQGYQSLHVESSPDALKFYRNNGYIDMPFDDPDGYEGDPRDTAVGKIL	not soluble
MSVYTTAQLLAVNEKKFKFDPLFLRIFFRETYPFSTEKVYLSQIPGLVNMALYVSPIVSGKVIRSRGGSTSEFTPGYVKPKHEVNPLMMTLRLPDEDPQNVADPVYRRRRIILQNMKDEELAIAQVEEKQAVSAVLSGKYTMTGEAFEPVEVDMGRSAGNNIVQAGAAAWSTRDKETYDPTDDIEAYALNARGVVNIIVFDPKGWALFRSFKAVEKKLDTRRGSNSELETAVKDLGMAVSYKGMFGDVAIVVYSGQYVENDVKKNYLPDLTMVLGNTQARGLRTYGCILDADAQREGIDAST	not soluble
MSWMDKFDPKLQTMVKEVDAQIAPQLAKIDARILENQNKVLTSFQNHHVAESYLTGSTGYGHNDEGRDVLEAIYADVLGGEDALVRPQFVSGTHAIGVALLGLVRPGDDIVYITGKPYDTLQEVLGLAGNGIGAPQEYGIGVDYVDLLPNGAVDDDAVKARLNDKTKVVAIQRSRGYATRDSFTVDQIAAMIKVVRSVLPNVWIFVDNAYGEVSETKEPLEVGADVMAGSLFKNAGGGMAKTGGYIVGKKDLIDRISYRFTVPGLGGAEGATVGALADMYQGFFISPQTTGNAIKGAIFEAALFAKLGLDVSPAWDAPRTDLIQTVNFGNADDMVKFAKAVQANSPVDSFVTPIPEKMAGYEDQVIMAGGTFVAGSTIEFSGDGPLRPPYTLYLQGGLTYAHIKLATMGAAQSTFFDNLEHHHHHH	not soluble
MSWQAYVDTSLLGTGKIDRAAIVSRAGDSVWAASAGFNLSPQEIQGLAAGFQDPPSMFGTGIILAGQKYITIRAEGRSIYGKLQKEGIICVATKLCILVSHYPETTLPGEAAKITEALADYLVGVGY	soluble
MSYFKNAFNQKSLIDDSSVYLEPCSSSNFIELKRMHYNEENTKKTWDIIKSLDSVAVLLYEKESDCFVIVKQFRPAIYARRFHFKCDQDQTIDGYTYELCAGLVDKANKSLEEIACEEALEECGYQISPKNLETIGQFYSATGLSGSLQTLYYAEVHKNLKVSKGGGIDTERIEVLFLERSKALDFIMDFQYAKTTGLSLAILWHLKKFKNV	not soluble
MSYLAKFTSPNQMKKLIKTVVADLLGSDEDLKTSSCHVISNLAANSQEMLKGYTSQIVPYVLLEKCREVPKEDEIAREKQEKWNDVWAELVPTTSSAVRLYKEEILNLAIDLVTNNEVWAVRKQAAVMIRVTFENLKKDAGIDVAKKSALSLRDTLNGRIWDGKIEILRALTSAFEAGGADFKRNMSATEIEDMETVLRREASKKNMEYAGAGLATIATWAVISESVESATWLAKKIDENVTKLIGARNDADSDDNMDGLSNLEKEIRASKLVTLNLTALAISLPAFNNAEEAESTLSQIAGYVKSTVIAWKSKQFFFNELAKSLEKWTPREPVAAGKLIDNILEQADELCAQQKKTVATDALQVVLRIQERSDRFGVDRNSVLDSVNRGVAGSETGLGSRFEAKMDTD	not soluble
MSYLDTATDLPNQTLFLEYLNIALSNARRHHAQVGVLLCQINNWSDLKRKRGDAVANAFLQEAGQKLKSNLRNGDIVSRWDKDEFIFLVSKVQDTSSLLGIAQRLMKPVLAPVTAGGRPFQPEITYGVALYPVDGEQVNDLIGHIRENLQQLLPQPTLEHHHHHH	not soluble
MSYNFELSYVKGCDSVHVVEHKTSAVYYPRSNGAAERFVDTLKRGIAKIKGEGSVNQQILNKFLISYRNTPHSALNGATPAECHFGRKIRTTMSLLMLTDRVLKVPKLTQYQQNMKHHYDLRNGARAKNFQVNQKVYVQVHQGNKSHWKHGVIRRKFGGVLYEVQVGDRMQKSHVNQIRTRCGDYSREDIFEETIYPLFFSTPGKFTSCSDNKSRSGATGGETNLFDSSGSSVNPRLSSDSFGFVGESGGDEMSRSDDPVVTSTVPSTDLNRGSRITSELKKKESNAVRGQPRGSSSTNNNDSSAPGYASRSHPTTDPSHSVRRSSRIRRVPDRYGSSVEHPLTSTGTPRGSTSTQLGQASTRNGSRYTASGRTPSCQGNRYSSIRGEGVTARRERVRSTWR	not soluble
MSYPIKSTLIILRGNSASGKTTIAKQLQEHFGQGTLLVSQDVVRRDMLRVHDTIGNLSHDLLFEITKYGKGKCEFVILEGILNSHRYGDMLKELIHLFEGNAYTYYFDLSLKETIRRHNTREKRHEFGEDSLQKWYNPHDTIEVTRETIFTDNLTQKDIFDAILNDVMVRKLEHHHHHH	soluble
MSYPSMSSFSTNVPDSENSSRSSVDGYNLKDTTSEKIKQFRENNKRKTSNSSSEEEPETEEGDPSRKLSSKSAEDKFVGRGIDAPRGRIANIRRESSCSVDSEAAHERLTKASQQVSTGFDDIALDSERSPGTSAEFRRRAPSFNTVIGEPISVVTNAFIPHSCSPSPTRQQADLIKQCYSPSTQQMVRPNISYSPSPRESPAQSPTRHAHKLKFQRAESPICRQPIKRKLTVTTLAETDIKRLFVPRSNTSPLVTDKTFPYPQNVGQLFESASTSSEFSSFSVPHSPGPLRAMTPLSSVSVGDQEENSPSVKDAEEKTTDNDEEMQDVEMSDNGTEVDDDLIRAATEAPLPDDDDQNDFAY	not soluble
MSYTATNQPVRAPPLNSDYELIDGDPYFTRVVSYFRFSDYVNWAVITASFPLGMKLWEKIVPSQGKGLKPSVVNPVTLRVSTLLGFFGGFCLNYVKSSQRFLGWRENSREVKLDRFEIKQKLSQGVLPYNEHLSKLDDRNKDISNRNSQYSHALLFVIPWFNTTYHPYHQVDLKKYYINREGEENWGFELKPLDEIYAKYGKKF	not soluble
MSYTHILVAVAVTPESHQLLAKAVSIARPVQAKVSLITLASDPELYNQFAAPMMEDLRAVMHEETENFLKMLGEKADYPIEQTFIASGELSQHILAVCRKHHVDLVICGNHNHSFFSRASCSAKSVVSASQVDVLLVPLAGD	not soluble
MSYVIDRRLNGKNKSTVNRQRFLRRYREHIKKAVEEAVSRRSITDMEHGEQISIPGRDIDEPVLHHGRGGRQTVVHPGNKEFTAGEHIARPSGGGGGRGGGKASNSGEGMDDFVFQITQEEFLDFMFEDLELPNLVKRHITGTDTFKTVRAGISNDGNPSRINIVRTLRSAHARRIALSGGSRAKLRAALKELERIKREEPDNLGDIQELELEIAKLRARIDRVPFLDTFDLKYNLLVKQPNPTSKAVMFCLMDVSGSMTQATKDIAKRFFILLYLFLKRNYEKIEVVFIRHHTSAREVDEEEFFYSRETGGTIVSSALKMMQEIMAERYPTHEWNIYAAQASDGDNWNDDSPVCRDILLKQIMPFVQYYTYVEITPREHQALWFEYERVREAFEDSFAQQQIVSASDIYPVFRELFQRRLVAKLAAALEHHHHHH	not soluble
MTAFSTLNVLPPAQLTNLNELGYLTMTPVQAAALPAILAGKDVRVQAKTGSGKTAAFGLGLLQQIDASLFQTQALVLCPTRELADQVAGELRRLARFLSNTKILTLCGGQPFGMQRDSLQHAPHIIVATPGRLLDHLQKGTVSLDALNTLVMDEADRMLDMGFSDAIDDVIRFAPASRQTLLFSATWPEAIAAISGRVQRDPLAIEIDSTDALPPIEQQFYETSSKGKIPLLQRLLSLHQPSSCVVFCNTKKDCQSVCDALNEVGQSALSLHGDLEQRDRDQTLVRFANGSARVLVATDVAARGLDIKSLELVVNFELAWDPEVHVHRIGRTARAGNSGLAISFCAPEEAQRANIISDMLQIKLNWQTLPANSSIVPLEAEMATLCIDGGKKAKMRPGDVLGALTGDIGLDGADIGKIAVHPAHVYVAVRQAVAHKPWKQLQGGKIKGKTCRVRLLK	soluble
MTAMLSMACRRAVRAGAHCDEGGHVKAFDYPDSMNNKPVPIVLRRTSIGLILFILPAMLIGCSRVPVKTQPKPASVNVWPLTTPANPEAANEVVMRALSLVGTPYRFGGNTPESGFDCSGLVSYVYRDALDLRLPRTSYELAAVQGPKIDAEQLTTGDLVFFGSARSVTHVGIYLSEGRFVHAPSSGGTVRLDRLDTPYWRDHYTGAKRVLRIIEAKVSMVFTDKCHLTFTHYGEESAQAALHTYFNIGDINQVEVQGLPETCFNSLNQQQENVPSPRHISENVDCIYSAENMQNQILDKSFNRTIALHHHNASQFVLWNPWHKKTSGMSETGYQKMLCLETARIHHLLEFGESLSVEISLKG	soluble
